Test results as given in patent US20230131847A1, “RECOMBINASE COMPOSITIONS AND METHODS OF USE” (FLAGSHIP PIONEERING INNOVATIONS VI, LLC, priority 2019, published 2023).

Tests used:
[1] = tested on: HEK293T landing pad cells; experiment: Dual AAV delivery of serine integrase and template DNA, ddPCR integration assay; format: cell-based, human
Description: FIGS. 3A and 3B: Dual AAV delivery of serine integrase and template DNA to mammalian cells. (A) Schematic representation of experiment. BXB1 serine recombinase and template DNA are co-delivered as separate AAV viral vectors into BXB landing pad cell lines. (B) Droplet digital PCR (ddPCR) assay to assess integration (% CNV/landing pad) of BXB1 serine recombinase and transgene into attP-attP* landing pad cell line 3 days and 7 days post-transduction. Black dots (to the right of each pair of gray dots) indicate template only samples and fall at 0% on the y-axis. Gray dots (to the left of each pair of black dots) indicate template+BXB1 integrase and fall between 1-6% on the y-axis. […]
Two transgene configurations are assessed to determine the integration, stability, and expression using different AAV donor formats (FIG. 1B): 1) template comprising attP* or attB* that utilizes formation of double-stranded circularized DNA following AAV transduction in the cell nucleus; or 2) template comprising double attachment sites, attP-attP* or attB-attB*, that can integrate into the mammalian genome independent of double-stranded circularization of the DNA following AAV transduction in the cell nucleus. […]

[2] = tested on: HEK293T landing pad cells; experiment: mRNA delivery of integrase and AAV delivery of template DNA, ddPCR integration assay; format: cell-based, human
Description: FIGS. 4A and 4B: mRNA delivery of BXB1 integrase and AAV delivery of template DNA to mammalian cells. (A) Schematic representation of experiment. mRNA delivery of BXB1 serine recombinase and AAV delivery of template DNA into BXB1 landing pad cell lines. (B) Droplet digital PCR (ddPCR) assay to assess integration (% CNV/landing pad) of BXB1 serine recombinase and transgene into attP-attP* landing pad cell line 3 days post mRNA transfection/AAV transduction. Black dots (to the right of each pair of gray dots) indicate template only samples and fall at 0% on the y-axis. Gray dots (to the left of each pair of black dots) indicate template+BXB1 integrase and fall at greater than 0% on the y-axis.
More specifically, a recombinase, e.g., an integrase with an amino acid sequence from Table 3A, 3B, or 3C, e.g., the Bxb1 recombinase protein (Table 3A Line No. 204), and a template DNA comprising the associated attachment site, e.g., a sequence from a LeftRegion or RightRegion of Table 2A, 2B, or 2C, e.g., the LeftRegion from Table 2A Line No. 204, are introduced into a HEK293T landing pad cell line. In this example, the recombinase is delivered as mRNA encoding the recombinase, and the template DNA is delivered via AAV.
HEK293T landing pad cells containing either the attP-attP* or attB-attB* landing pad sites (see Example 14) were seeded in a 48-well plate format at 40,000 cells/well. […] The timing of delivery was also assessed by the following conditions: 1) mRNA delivery of BXB1 integrase and AAV delivery of template DNA on the same day, 2) mRNA delivery of BXB1 integrase 24 h prior to AAV delivery of template DNA, 3) AAV delivery of template DNA 24 h prior to mRNA delivery of BXB1 integrase. ddPCR was performed to assess the integration mediated through mRNA delivery of a serine integrase and AAV delivery of a template comprising its attachment, ddPCR was performed to assay for integration (% CNV/landing pad) on day 3 post-transfection of mRNA and post-transduction of AAV. ˜2-4% integration was detected using an attP* donor to attB-attB* landing pad 293T cell line (FIG. 4B). […]

B1: BXB1 integrase: Bxb1 recombinase protein (Table 3A Line No. 204), delivered as AAV vector or mRNA (protein, UniProt P25426 1-333, looked up)
Integrase: MDAEAWLASEKRLIDNEEWTPPAEREKKAAASAITVEEYTKKWIAERDLAGGTKDLYSTHARKRIYPVLGDTPVAEMTPALVRAWWAGMGKQYPTARRHAYNVLRAVMNTAVEDKLVSENPCRIEQKAPAERDVEALTPEELDVVAGEVFEHYRVAVYILAWTSLRFGELIEIRRKDIMDDGETMKLRVRRGPARVGEKIVVGNTKTVRSKRPVTVPPHVAAMIRAHMADRTKMNKGPEALLVTTTRGQRLSKSAFTRSLKKGYAKIGRPDLRIHDLRAVGATLAAQAGATTKELMVRLGHTTPRMAMKYQMASAARDEEIARRMSELAGITP
- integration (% CNV/landing pad) by ddPCR ([1]; dual AAV2, attB* donor to attP-attP* landing pad cell line, day 3 and day 7 post-transduction, integrase MOI about 25,000, template MOI about 75,000): ~5%
- integration (% CNV/landing pad) by ddPCR, FIG. 3B ([1]; dual AAV, template+BXB1 integrase, attP-attP* landing pad cell line, 3 days and 7 days post-transduction): 1-6%
- highest % CNV/landing pad by ddPCR ([2]; AAV delivery of attachment site donor 24 h prior to mRNA delivery of BXB1 integrase, day 3): ~4%
- integration (% CNV/landing pad) by ddPCR ([2]; integrase mRNA about 1 μg + AAV template MOI about 75,000, attP* donor to attB-attB* landing pad 293T cell line, day 3): 2-4%
- integration (% CNV/landing pad) by ddPCR, FIG. 4B ([2]; template+BXB1 integrase, attP-attP* landing pad cell line, 3 days post mRNA transfection/AAV transduction): greater than 0%
